Measured values taken from the Human Domainome abundance scans (Beltran et al. 2025).
± gives the uncertainty stated by the source.

B1: Serine/threonine-protein kinase A-Raf, residues 21 to 89; numbered along this chain, P10398 (parent)
chain: VKVYLPNKQRTVVTVRDGMSVYDSLDKALKVRGLNQDCCVVYRLIKGRKTVTAWDTAIAPLDGEELIVE

Variants of: B1
Assay: abundance fitness (aPCA) (normalised: wild type 0, dead -1); higher = more abundant; growth selection in yeast, the domain comes from the species named
Conditions: Homo sapiens

Going from VKVYLPNKQRTVVTVRDGMSVYDSLDKARKVRGLNQDCCVVYRLIKGRKTVTAWDTAIAPLDGEELIVE [L29R] to VKVYLPNKQRTVVTVRDGMSVYDSLDKASKVRGLNQDCCVVYRLIKGRKTVTAWDTAIAPLDGEELIVE [L29S], the abundance fitness rises from -0.969 ± 0.099 to -0.558 ± 0.072.

VKVYLPNKQRTVVTVRDGMSVYDSLDKAQKVRGLNQDCCVVYRLIKGRKTVTAWDTAIAPLDGEELIVE [L29Q] and VKVYLPNKQRTVVTVRDGMSVYDSLDKAVKVRGLNQDCCVVYRLIKGRKTVTAWDTAIAPLDGEELIVE [L29V] are within error of each other in abundance fitness: -0.913 ± 0.23 for the first, -0.806 ± 0.095 for the second.

VKVYLPNKQRTVVTVRDGMSVYDSLDKAWKVRGLNQDCCVVYRLIKGRKTVTAWDTAIAPLDGEELIVE [L29W] and VKVYLPNKQRTVVTVRDGMSVYDSLDKATKVRGLNQDCCVVYRLIKGRKTVTAWDTAIAPLDGEELIVE [L29T] are within error of each other in abundance fitness: -0.601 ± 0.07 for the first, -0.845 ± 0.2 for the second.

Going from VKVYLPNKQRTVVTVRDGMSVYDSLDKALKPRGLNQDCCVVYRLIKGRKTVTAWDTAIAPLDGEELIVE [V31P] to VKVYLPNKQRTVVTVRDGMSVYDSLDKALKGRGLNQDCCVVYRLIKGRKTVTAWDTAIAPLDGEELIVE [V31G], the abundance fitness rises from -0.41 ± 0.1 to -0.086 ± 0.04.

VKVYLPNKQRTVVTVRDGMSVYDSLDKALKFRGLNQDCCVVYRLIKGRKTVTAWDTAIAPLDGEELIVE [V31F] and VKVYLPNKQRTVVTVRDGMSVYDSLDKALKDRGLNQDCCVVYRLIKGRKTVTAWDTAIAPLDGEELIVE [V31D] are within error of each other in abundance fitness: -0.187 ± 0.12 for the first, -0.265 ± 0.25 for the second.

Compared with VKVYLPNKQRTVVTVRDGMSVYDSLDKALKWRGLNQDCCVVYRLIKGRKTVTAWDTAIAPLDGEELIVE [V31W], VKVYLPNKQRTVVTVRDGMSVYDSLDKALKARGLNQDCCVVYRLIKGRKTVTAWDTAIAPLDGEELIVE [V31A] is higher in abundance fitness: -0.305 ± 0.072 for the first, 0.111 ± 0.056 for the second.

VKVYLPNKQRTVVTVRDGMSVYDSLDKALKERGLNQDCCVVYRLIKGRKTVTAWDTAIAPLDGEELIVE [V31E] and VKVYLPNKQRTVVTVRDGMSVYDSLDKALKTRGLNQDCCVVYRLIKGRKTVTAWDTAIAPLDGEELIVE [V31T] are within error of each other in abundance fitness: 0.066 ± 0.067 for the first, 0.015 ± 0.08 for the second.

VKVYLPNKQRTVVTVRDGMSVYDSLDKALKMRGLNQDCCVVYRLIKGRKTVTAWDTAIAPLDGEELIVE [V31M] and VKVYLPNKQRTVVTVRDGMSVYDSLDKALKRRGLNQDCCVVYRLIKGRKTVTAWDTAIAPLDGEELIVE [V31R] are within error of each other in abundance fitness: -0.045 ± 0.082 for the first, 0.004 ± 0.046 for the second.

VKVYLPNKQRTVVTVRDGMSVYDSLDKALKLRGLNQDCCVVYRLIKGRKTVTAWDTAIAPLDGEELIVE [V31L] and VKVYLPNKQRTVVTVRDGMSVYDSLDKALKNRGLNQDCCVVYRLIKGRKTVTAWDTAIAPLDGEELIVE [V31N] are within error of each other in abundance fitness: 0.005 ± 0.046 for the first, -0.073 ± 0.17 for the second.

VKVYLPNKQRTVVTVRDGMSVYDSLDKALKKRGLNQDCCVVYRLIKGRKTVTAWDTAIAPLDGEELIVE [V31K] and VKVYLPNKQRTVVTVRDGMSVYDSLDKALKIRGLNQDCCVVYRLIKGRKTVTAWDTAIAPLDGEELIVE [V31I] are within error of each other in abundance fitness: -0.042 ± 0.079 for the first, -0.076 ± 0.07 for the second.

First: VKVYLPNKQRTVVTVRDGMSVYDSLDKALKCRGLNQDCCVVYRLIKGRKTVTAWDTAIAPLDGEELIVE [V31C]
Second: VKVYLPNKQRTVVTVRDGMSVYDSLDKALPVRGLNQDCCVVYRLIKGRKTVTAWDTAIAPLDGEELIVE [K30P]
The abundance fitness of the first is higher: -0.103 ± 0.086 for the first, -0.957 ± 0.19 for the second.

Going from VKVYLPNKQRTVVTVRDGMSVYDSLDKALTVRGLNQDCCVVYRLIKGRKTVTAWDTAIAPLDGEELIVE [K30T] to VKVYLPNKQRTVVTVRDGMSVYDSLDKALFVRGLNQDCCVVYRLIKGRKTVTAWDTAIAPLDGEELIVE [K30F], the abundance fitness falls from -0.152 ± 0.095 to -0.574 ± 0.12.

VKVYLPNKQRTVVTVRDGMSVYDSLDKALEVRGLNQDCCVVYRLIKGRKTVTAWDTAIAPLDGEELIVE [K30E] and VKVYLPNKQRTVVTVRDGMSVYDSLDKALQVRGLNQDCCVVYRLIKGRKTVTAWDTAIAPLDGEELIVE [K30Q] are within error of each other in abundance fitness: -0.336 ± 0.088 for the first, -0.217 ± 0.063 for the second.

First: VKVYLPNKQRTVVTVRDGMSVYDSLDKALNVRGLNQDCCVVYRLIKGRKTVTAWDTAIAPLDGEELIVE [K30N]
Second: VKVYLPNKQRTVVTVRDGMSVYDSLDKALRVRGLNQDCCVVYRLIKGRKTVTAWDTAIAPLDGEELIVE [K30R]
The abundance fitness of the first is lower: -0.478 ± 0.29 for the first, -0.006 ± 0.032 for the second.

Compared with VKVYLPNKQRTVVTVRDGMSVYDSLDKALWVRGLNQDCCVVYRLIKGRKTVTAWDTAIAPLDGEELIVE [K30W], VKVYLPNKQRTVVTVRDGMSVYDSLDKALAVRGLNQDCCVVYRLIKGRKTVTAWDTAIAPLDGEELIVE [K30A] is higher in abundance fitness: -0.969 ± 0.15 for the first, -0.218 ± 0.047 for the second.

VKVYLPNKQRTVVTVRDGMSVYDSLDKALGVRGLNQDCCVVYRLIKGRKTVTAWDTAIAPLDGEELIVE [K30G] and VKVYLPNKQRTVVTVRDGMSVYDSLDKALLVRGLNQDCCVVYRLIKGRKTVTAWDTAIAPLDGEELIVE [K30L] are within error of each other in abundance fitness: -0.426 ± 0.053 for the first, -0.561 ± 0.087 for the second.

Compared with VKVYLPNKQRTVVTVRDGMSVYDSLDKALCVRGLNQDCCVVYRLIKGRKTVTAWDTAIAPLDGEELIVE [K30C], VKVYLPNKQRTVVTVRDGMSVYDSLDKALMVRGLNQDCCVVYRLIKGRKTVTAWDTAIAPLDGEELIVE [K30M] is higher in abundance fitness: -0.583 ± 0.13 for the first, -0.288 ± 0.097 for the second.

VKVYLPNKQRTVVTVRDGMSVYDSLDKALIVRGLNQDCCVVYRLIKGRKTVTAWDTAIAPLDGEELIVE [K30I] and VKVYLPNKQRTVVTVRDGMSVYDSLDKALSVRGLNQDCCVVYRLIKGRKTVTAWDTAIAPLDGEELIVE [K30S] are within error of each other in abundance fitness: -0.63 ± 0.47 for the first, -0.265 ± 0.075 for the second.

VKVYLPNKQRTVVTVRDGMSVYDSLDKALVVRGLNQDCCVVYRLIKGRKTVTAWDTAIAPLDGEELIVE [K30V] and VKVYLPNKQRTVVTVRDGMSVYDSLDKALHVRGLNQDCCVVYRLIKGRKTVTAWDTAIAPLDGEELIVE [K30H] are within error of each other in abundance fitness: -0.713 ± 0.094 for the first, -0.83 ± 0.29 for the second.

VKVYLPNKQRTVVTVRDGMSVYDSLDKALYVRGLNQDCCVVYRLIKGRKTVTAWDTAIAPLDGEELIVE [K30Y] showed an abundance fitness of -0.403 ± 0.13.
